One substance from publication PMC11219949 can be followed below.

Experiment [1] deals with Recombinant His-tagged AUREO1c protein (Phaeodactylum tricornutum aureochrome 1c) (Phaeodactylum tricornutum). In words: native MS; UHPLC-native MS (Waters BEH SEC column, 100 mM ammonium acetate, room temperature); 5 uM protein in PBS incubated under blue light (200 umol photons m^-2 s^-1) for 60 min, then cross-linked with 5 uM BS3 and quenched with Tris.
The target is the same in experiment [2]. In words: native MS; UHPLC-native MS (Waters BEH SEC column, 100 mM ammonium acetate, room temperature); 5 uM protein in PBS incubated in the dark for 60 min, then cross-linked with 5 uM BS3 and quenched with Tris. (In general: Size exclusion chromatography separates by hydrodynamic size, large species first.)

With “Recombinant His-tagged AUREO1c protein (Phaeodactylum tricornutum aureochrome 1c) (natural protein)”, the stoichiometry N in experiment [1] and in experiment [2] was 2 in each case.
